{"source": "paper PMC10923667", "about": "“Cloning and expression heterologous alanine dehydrogenase genes: Investigation of reductive amination potential of L-alanine dehydrogenases for green synthesis of alanine derivatives” (Heliyon, 2024)", "molecules": {"B1": {"name": "AcfhAlaDH (Ammoniphilus sp. CFH 90114) (protein)", "chain": "MIIGVPKEIKNNENRVGLTPAGVTAFKNNGHDVWVETNAGMGSGFTDEDYTAAGAKIVDSASVVWSAEMVVKVKEPLPEEYTYFREGLILYTYLHLAPEPELTKALVEKKVIAIAYETIQADNGSLPLLTPMSEVAGRMSIQIGAQFLEKSKGGKGVLLGGVPGVAPGEVVIVGGGIVGTNAAKMALGLGASVTLLDISADRLRQLDDMFQGRLKTLMSNSYNIAEAVKKADLVVGAVLIPGARAPRLVTEEMVKTMQPGSVIVDVAIDQGGSIETIDRITTHDNPTYVKHGVLHYAVANMPGAVARTSTIALTNVTVPYGVQIANKGWKQAALDNKALAKGINVVDGKVTYKAVAEAHGYTPVAVETVLTGQNVGV", "notes": "full-length, codon-optimised, pET-28a(+) NdeI/XhoI, N- and C-terminal 6xHis tags, E. coli BL21 (DE3), Ni-NTA purified"}, "B2": {"name": "TtAlaDH (Thermus thermophilus HB8) (protein)", "chain": "MVIGVPKEIKTLENRVALTPGGVESLVRRGHTVLVERGAGEGSGLSDAEYARAGAELVGREEAWGAEMVVKVKEPLPEEYGFLREGLILFTYLHLAADRGLTEAMLRSGVTGIAYETVQLPDGTLPLLVPMSEVAGRMAPQVGAQFLEKPKGGRGVLLGGVPGVAPASVVILGGGTVGTNAAKIALGMGAQVTILDVNHKRLQYLDDVFGGRVITLTATEANIKKSVQHADLLIGAVLVPGAKAPKLVTRDMLSLMKEGAVIVDVAVDQGGCVETIRPTTHAEPTYVVDGVVHYGVANMPGAVPRTSTFALTNQTLPYVLKLAEKGLDALLEDAALLKGLNTHKGRLTHPGVAEAFGLPYTPPEEALRG", "notes": "as for B1"}, "B3": {"name": "AfAlaDH (Archaeoglobus fulgidus DSM 4304) (protein)", "chain": "METLILTQEEVESLISMDEAMNAVEEAFRLYALGKAQMPPKVYLEFEKGDLRAMPAHLMGYAGLKWVNSHPGNPDKGLPTVMALMILNSPETGFPLAVMDATYTTSLRTGAAGGIAAKYLARKNSSVFGFIGCGTQAYFQLEALRRVFDIGEVKAYDVREKAAKKFVSYCEDRGISASVQPAEEASRCDVLVTTTPSRKPVVKAEWVEEGTHINAIGADGPGKQELDVEILKKAKIVVDDLEQAKHGGEINVAVSKGVIGVEDVHATIGEVIAGLKDGRESDEEITIFDSTGLAIQDVAVAKVVYENALSKNVGSKIKFFRI", "notes": "as for B1"}, "B4": {"name": "MetAlaDH (Melghiribacillus thermohalophilus) (protein)", "chain": "MKIGVPKEIKNNENRVALTPAGVMTLKKAGHEVFIETGAGLGSGFTDEQYTEAGAQIVTTAKEAWSQEMVMKVKEPLPEEYDYFYEGLILFTYLHLAAEPELTKALIEKKVVGIAYETVQLDNGSLPLLTPMSEVAGRMATQIGAQFLEKPHGGKGILLGGIPGVRRGKVTIIGGGVVGTNAAKIAVGLGADVTIVDLNPDRLRELDDIFGSSINTLMSNSLNIAEAVKESDLVIGAVLIPGAKAPKLVTEDMVKEMKKGSVIVDVAIDQGGIVETSDRITTHDNPTYEKHGVVHYAVANMPGAVPRTSTIGLTNVTVPYAVQLANKGYKQACLDHAALKKGINTLNGYVTYQAVAEAHGLEYENVDLLLK", "notes": "as for B1"}}, "key": {"AfAlaDH": {"biological_target": "T1, AfAlaDH (Archaeoglobus fulgidus, UniProt O28608)", "T1 construct": "gene ala; full-length, codon-optimised, pET-28a(+) NdeI/XhoI, N- and C-terminal 6xHis tags, E. coli BL21 (DE3), Ni-NTA purified", "T1 sequence (O28608 1-322)": "B3 chain", "assay": "NADH consumption at […] nm, Michaelis-Menten fit", "type": "biochemical", "conditions": "reductive amination; 0.5 mM NADH, 0.5 M NH4Cl, pH 9.5, 25 °C; read-out: Pyruvate / KM"}, "CCCC(=O)C(=O)O": {"test_system": "T2, CCCC(=O)C(=O)O", "T2 construct": "full-length, codon-optimised, pET-28a(+) NdeI/XhoI, N- and C-terminal 6xHis tags, E. coli BL21 (DE3), Ni-NTA purified", "assay": "purified protein", "type": "biochemical, Candidatus Bathyarchaeota archaeon", "conditions": "reductive amination, 0.5 mM NADH, 0.5 M NH4Cl, pH 10.5, 25 °C"}, "CC(=O)C(=O)O": {"test_system": "T3, CC(=O)C(=O)O", "T3 construct": "full-length, codon-optimised, pET-28a(+) NdeI/XhoI, N- and C-terminal 6xHis tags, E. coli BL21 (DE3), Ni-NTA purified", "assay": "purified protein", "type": "biochemical, Candidatus Bathyarchaeota archaeon", "conditions": "reductive amination, 0.5 mM NADH, 0.5 M NH4Cl, pH 10.5, 25 °C"}, "CCC(=O)C(=O)O": {"test_system": "T4, CCC(=O)C(=O)O", "T4 construct": "full-length, codon-optimised, pET-28a(+) NdeI/XhoI, N- and C-terminal 6xHis tags, E. coli BL21 (DE3), Ni-NTA purified", "assay": "purified protein", "type": "biochemical, Candidatus Bathyarchaeota archaeon", "conditions": "reductive amination, 0.5 mM NADH, 0.5 M NH4Cl, pH 10.5, 25 °C"}, "purified protein [1]": {"substrate": "CCC(=O)C(=O)O", "assay": "purified protein", "type": "biochemical, Ammoniphilus sp. CFH 90114", "conditions": "reductive amination, 0.5 mM NADH, 0.5 M NH4Cl, pH 10.5, 25 °C"}, "purified protein [2]": {"substrate": "CC(=O)C(=O)O", "assay": "purified protein", "type": "biochemical, Ammoniphilus sp. CFH 90114", "conditions": "reductive amination, 0.5 mM NADH, 0.5 M NH4Cl, pH 10.5, 25 °C"}, "purified protein [3]": {"substrate": "CCCC(=O)C(=O)O", "assay": "purified protein", "type": "biochemical, Ammoniphilus sp. CFH 90114", "conditions": "reductive amination, 0.5 mM NADH, 0.5 M NH4Cl, pH 10.5, 25 °C"}, "purified protein [4]": {"substrate": "CCC(=O)C(=O)O", "assay": "purified protein", "type": "biochemical, Thermus thermophilus", "conditions": "reductive amination, 0.5 mM NADH, 0.5 M NH4Cl, pH 8.5, 25 °C"}, "purified protein [5]": {"substrate": "CC(=O)C(=O)O", "assay": "purified protein", "type": "biochemical, Thermus thermophilus", "conditions": "reductive amination, 0.5 mM NADH, 0.5 M NH4Cl, pH 8.5, 25 °C"}, "purified protein [6]": {"substrate": "CCCC(=O)C(=O)O", "assay": "purified protein", "type": "biochemical, Thermus thermophilus", "conditions": "reductive amination, 0.5 mM NADH, 0.5 M NH4Cl, pH 8.5, 25 °C"}, "purified protein [7]": {"substrate": "CCCCC(=O)C(=O)O", "assay": "purified protein", "type": "biochemical, Thermus thermophilus", "conditions": "reductive amination, 0.5 mM NADH, 0.5 M NH4Cl, pH 8.5, 25 °C"}, "purified protein [8]": {"substrate": "CCC(=O)C(=O)O", "assay": "purified protein", "type": "biochemical, Archaeoglobus fulgidus", "conditions": "reductive amination, 0.5 mM NADH, 0.5 M NH4Cl, pH 9.5, 25 °C"}, "purified protein [9]": {"substrate": "CCCC(=O)C(=O)O", "assay": "purified protein", "type": "biochemical, Archaeoglobus fulgidus", "conditions": "reductive amination, 0.5 mM NADH, 0.5 M NH4Cl, pH 9.5, 25 °C"}, "purified protein [10]": {"substrate": "CCC(=O)C(=O)O", "assay": "purified protein", "type": "biochemical, Melghiribacillus thermohalophilus", "conditions": "reductive amination, 0.5 mM NADH, 0.5 M NH4Cl, pH 9.5, 25 °C"}, "purified protein [11]": {"substrate": "CC(=O)C(=O)O", "assay": "purified protein", "type": "biochemical, Melghiribacillus thermohalophilus", "conditions": "reductive amination, 0.5 mM NADH, 0.5 M NH4Cl, pH 9.5, 25 °C"}, "purified protein [12]": {"substrate": "CCCC(=O)C(=O)O", "assay": "purified protein", "type": "biochemical, Melghiribacillus thermohalophilus", "conditions": "reductive amination, 0.5 mM NADH, 0.5 M NH4Cl, pH 9.5, 25 °C"}}, "data": [{"molecule": "CC(=O)C(=O)O", "note": "[pyruvate]", "values": [{"measurement": "Km", "setting": "AfAlaDH", "result": "200 ± 100", "unit": "µM"}]}, {"molecule": "CbAlaDH (Candidatus Bathyarchaeota archaeon)", "values": [{"measurement": "Km", "setting": "CCCC(=O)C(=O)O", "result": "800 ± 0", "unit": "µM"}, {"measurement": "kcat", "setting": "CCCC(=O)C(=O)O", "result": "0.17 ± 0.1", "unit": "s⁻¹"}, {"measurement": "kcat/Km", "setting": "CCCC(=O)C(=O)O", "result": "210 ± 100", "unit": "M⁻¹ s⁻¹"}, {"measurement": "Km", "setting": "CC(=O)C(=O)O", "result": "400 ± 0", "unit": "µM"}, {"measurement": "kcat", "setting": "CC(=O)C(=O)O", "result": "0.5 ± 0.1", "unit": "s⁻¹"}, {"measurement": "kcat/Km", "setting": "CC(=O)C(=O)O", "result": "1300 ± 100", "unit": "M⁻¹ s⁻¹"}, {"measurement": "Km", "setting": "CCC(=O)C(=O)O", "result": "2200 ± 1000", "unit": "µM"}, {"measurement": "kcat", "setting": "CCC(=O)C(=O)O", "result": "0.7 ± 0.2", "unit": "s⁻¹"}, {"measurement": "kcat/Km", "setting": "CCC(=O)C(=O)O", "result": "300 ± 200", "unit": "M⁻¹ s⁻¹"}]}, {"molecule": "B1", "values": [{"measurement": "Km", "setting": "purified protein [1]", "result": "1300 ± 400", "unit": "µM"}, {"measurement": "kcat", "setting": "purified protein [1]", "result": "5.4 ± 0.5", "unit": "s⁻¹"}, {"measurement": "kcat/Km", "setting": "purified protein [1]", "result": "4000 ± 1400", "unit": "M⁻¹ s⁻¹"}, {"measurement": "Km", "setting": "purified protein [2]", "result": "700 ± 200", "unit": "µM"}, {"measurement": "kcat", "setting": "purified protein [2]", "result": "112 ± 6.6", "unit": "s⁻¹"}, {"measurement": "kcat/Km", "setting": "purified protein [2]", "result": "148000 ± 13500", "unit": "M⁻¹ s⁻¹"}, {"measurement": "Km", "setting": "purified protein [3]", "result": "5200 ± 800", "unit": "µM"}, {"measurement": "kcat", "setting": "purified protein [3]", "result": 1, "unit": "s⁻¹"}, {"measurement": "kcat/Km", "setting": "purified protein [3]", "result": 200, "unit": "M⁻¹ s⁻¹"}]}, {"molecule": "B2", "values": [{"measurement": "Km", "setting": "purified protein [4]", "result": "400 ± 100", "unit": "µM"}, {"measurement": "kcat", "setting": "purified protein [4]", "result": 1.1, "unit": "s⁻¹"}, {"measurement": "kcat/Km", "setting": "purified protein [4]", "result": "3000 ± 700", "unit": "M⁻¹ s⁻¹"}, {"measurement": "Km", "setting": "purified protein [5]", "result": "630 ± 200", "unit": "µM"}, {"measurement": "kcat", "setting": "purified protein [5]", "result": "87 ± 5.1", "unit": "s⁻¹"}, {"measurement": "kcat/Km", "setting": "purified protein [5]", "result": "138000 ± 15700", "unit": "M⁻¹ s⁻¹"}, {"measurement": "Km", "setting": "purified protein [6]", "result": "3300 ± 1100", "unit": "µM"}, {"measurement": "kcat", "setting": "purified protein [6]", "result": 1.2, "unit": "s⁻¹"}, {"measurement": "kcat/Km", "setting": "purified protein [6]", "result": 400, "unit": "M⁻¹ s⁻¹"}, {"measurement": "Km", "setting": "purified protein [7]", "result": 400, "unit": "µM"}]}, {"molecule": "B3", "values": [{"measurement": "Km", "setting": "purified protein [8]", "result": "200 ± 0", "unit": "µM"}, {"measurement": "kcat", "setting": "purified protein [8]", "result": "7.5 ± 0.1", "unit": "s⁻¹"}, {"measurement": "kcat/Km", "setting": "purified protein [8]", "result": "34000 ± 100", "unit": "M⁻¹ s⁻¹"}, {"measurement": "Km", "setting": "purified protein [9]", "result": "300 ± 0", "unit": "µM"}, {"measurement": "kcat", "setting": "purified protein [9]", "result": "0.9 ± 0.2", "unit": "s⁻¹"}, {"measurement": "kcat/Km", "setting": "purified protein [9]", "result": "2700 ± 300", "unit": "M⁻¹ s⁻¹"}]}, {"molecule": "B4", "values": [{"measurement": "Km", "setting": "purified protein [10]", "result": "3800 ± 1200", "unit": "µM"}, {"measurement": "kcat", "setting": "purified protein [10]", "result": 3.3, "unit": "s⁻¹"}, {"measurement": "kcat/Km", "setting": "purified protein [10]", "result": 800, "unit": "M⁻¹ s⁻¹"}, {"measurement": "Km", "setting": "purified protein [11]", "result": "1300 ± 400", "unit": "µM"}, {"measurement": "kcat", "setting": "purified protein [11]", "result": "140 ± 19.7", "unit": "s⁻¹"}, {"measurement": "kcat/Km", "setting": "purified protein [11]", "result": "108000 ± 12000", "unit": "M⁻¹ s⁻¹"}, {"measurement": "Km", "setting": "purified protein [12]", "result": "1900 ± 0", "unit": "µM"}, {"measurement": "kcat", "setting": "purified protein [12]", "result": 0.7, "unit": "s⁻¹"}, {"measurement": "kcat/Km", "setting": "purified protein [12]", "result": 400, "unit": "M⁻¹ s⁻¹"}]}]}
